Data on one molecule can be found in patent US20240100133A1 (SAINT LOUIS UNIVERSITY, published 2024).

For test [1], the target named is T1, Cluster of Differentiation 14 (CD14), human, endogenous in primary human monocytes (human, UniProt P08571 20-345).
T1 construct: whole, on cells; also called CD14 receptor
T1 sequence (looked up): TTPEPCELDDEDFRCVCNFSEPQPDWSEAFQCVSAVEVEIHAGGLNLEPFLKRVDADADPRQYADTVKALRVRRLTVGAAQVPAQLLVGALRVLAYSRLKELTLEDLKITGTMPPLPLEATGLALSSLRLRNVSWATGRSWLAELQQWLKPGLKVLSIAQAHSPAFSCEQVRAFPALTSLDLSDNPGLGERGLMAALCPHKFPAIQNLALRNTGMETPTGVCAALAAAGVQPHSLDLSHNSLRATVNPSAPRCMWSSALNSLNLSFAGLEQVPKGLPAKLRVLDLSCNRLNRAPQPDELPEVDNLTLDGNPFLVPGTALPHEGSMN
As to the kind of experiment: co-immunoprecipitation with anti-GzmA from lysates of GzmA-treated human monocytes, western blot for CD14. In general terms: A western blot detects proteins with antibodies after separation by electrophoresis.

The target of test [2] is T2, Toll-like Receptor 4 (TLR4), human, endogenous in primary human monocytes (human, UniProt O00206 24-839).
T2 construct: whole, on cells
Kind of test: co-immunoprecipitation with anti-GzmA from lysates of GzmA-treated human monocytes, western blot for TLR4.

T2 sequence (O00206 24-839): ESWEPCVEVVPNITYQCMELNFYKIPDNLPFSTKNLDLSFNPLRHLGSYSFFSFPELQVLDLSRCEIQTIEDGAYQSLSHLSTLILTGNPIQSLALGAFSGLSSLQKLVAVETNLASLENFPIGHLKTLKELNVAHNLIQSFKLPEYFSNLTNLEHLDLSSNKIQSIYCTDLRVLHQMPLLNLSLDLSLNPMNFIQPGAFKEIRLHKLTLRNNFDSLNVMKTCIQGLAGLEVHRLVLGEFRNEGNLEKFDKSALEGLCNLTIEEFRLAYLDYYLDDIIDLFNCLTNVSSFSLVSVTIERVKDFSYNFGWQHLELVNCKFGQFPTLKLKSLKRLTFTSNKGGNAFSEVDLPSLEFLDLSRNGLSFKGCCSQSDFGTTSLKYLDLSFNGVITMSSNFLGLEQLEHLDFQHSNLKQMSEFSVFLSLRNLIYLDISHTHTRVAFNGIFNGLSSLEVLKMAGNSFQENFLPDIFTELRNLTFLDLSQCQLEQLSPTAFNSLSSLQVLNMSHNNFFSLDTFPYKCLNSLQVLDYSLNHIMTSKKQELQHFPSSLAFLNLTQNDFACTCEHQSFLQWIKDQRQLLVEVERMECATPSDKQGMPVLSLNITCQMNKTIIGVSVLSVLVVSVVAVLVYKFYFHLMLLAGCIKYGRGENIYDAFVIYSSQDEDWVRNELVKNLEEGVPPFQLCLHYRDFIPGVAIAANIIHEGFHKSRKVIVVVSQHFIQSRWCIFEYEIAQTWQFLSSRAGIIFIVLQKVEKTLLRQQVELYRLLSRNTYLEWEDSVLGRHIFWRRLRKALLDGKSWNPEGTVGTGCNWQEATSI

B1: Monomeric Granzyme A C93S, recombinant human, His-tagged (GzmA-C93S) (enzyme)
chain: IIGGNEVTPHSRPYMVLLSLDRKTICAGALIAKDWVLTAAHCNLNKRSQVILGAHSITREEPTKQIMLVKKEFPYPSYDPATREGDLKLLQLMEKAKINKYVTILHLPKKGDDVKPGTMCQVAGWGRTHNSASWSDTLREVNITIIDRKVCNDRNHYNFNPVIGMNMVCAGSLRGGRDSCNGDSGSPLLCEGVFRGVTSFGLENKCGDPRGPGVYILLSKKHLNWIIMTIKGAV
notes: Forms only monomers; also called monomeric GzmA; GzmA-monomer; not shown: His tag
For B1, the binding result in test [1] and in test [2] was “no binding” throughout.
